# Experiments:
# [1] = molecular target: human PD-1 (cell surface) (human) (UniProt Q15116)
# [2] = molecular target: human PD-1 (cell surface) (human) (UniProt Q15116); assay: column 'Affinity (nM)'; per the footnote of Table 2, FACS staining of cell surface PD-1 on activated CD4 T cells
# [3] = molecular target: human PD-1 (cell surface) (human) (UniProt Q15116); assay: column 'Affinity (nM)'; per the footnote of Table 2, FACS staining of cell surface PD-1 on activated CD4 T cells (Table 5 prints 0.6 for MK3575)
# human PD-1 (cell surface) (human), sequence (Q15116 25-288 limits assumed): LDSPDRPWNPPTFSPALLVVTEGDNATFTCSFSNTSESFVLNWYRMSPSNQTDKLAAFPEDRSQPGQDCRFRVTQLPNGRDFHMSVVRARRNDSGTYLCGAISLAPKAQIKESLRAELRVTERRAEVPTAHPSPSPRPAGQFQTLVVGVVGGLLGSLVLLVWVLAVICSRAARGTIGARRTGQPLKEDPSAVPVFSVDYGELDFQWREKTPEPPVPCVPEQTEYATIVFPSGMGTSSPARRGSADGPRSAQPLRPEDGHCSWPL
"EFRA, column 'Functional effect: % CFSE low CD8 T cells' [1] [%]",Affinity [2] [nM],Affinity [3] [nM],Substance
175,0.6,,BMS-5C4 (antibody)
100,,,IgG1 control (antibody)
,,0.5,MK-3475 (pembrolizumab) (antibody)

# Reference: patent publication US20220259315A1
